Among the data in the RNAGym collection of RNA variant scans (doi:10.7554/elife.90254) are self-cleavage values, retold here.

To fix the notation:
B1: OR4K15 (parent)
chain: GUUAACGGUCAUAGGCCAUGGAAACUAGGAGCACCAUUUCGCUGCCAGUGAAGAAAUGAACAAAGAAAAUCUGGGCCAGGCAGGCAUCAAAAGAAAUAGUCUUGCGCUCAACCAGAAAGUCUGUAAUCAUUUUAAGGGUA
B2: LINE1-full (parent)
chain: UACGUAGGUGGUUUUCCCCUGAUAGUGCUAAGGGGGCCUGGAAGUUUGGACUGGGCAGAGCUCAACACAGCGUGGCAAAGUGGCUGUGGCUAGACUGCCUCUCUGGAUUCCUCGUCACUCAGCAGGGCAUCUCUGAGAGAAAUGCC

One data set covers variants of B1. Description: self-cleavage, relative activity (ratio to wild type); higher = more cleavage; in vitro, sequencing; the parent is a self-cleaving ribozyme.
With G1A A95G, the self-cleavage was 2.4.

Consider U2A A125U, for which the self-cleavage stood at 2.08.

Turning to U2A A89U, the self-cleavage was found to be 1.2.

Turning to G1A U72C, the self-cleavage was 0.39.

Take U2A A18G: the self-cleavage was 0.91.

Consider G1U A114G, for which the self-cleavage was determined as 0.33.

On to U2A A22U, for which the self-cleavage is 0.88.

In the case of U2A A86G, the self-cleavage came to 1.46.

Regarding G1U A36G, the self-cleavage is 1.26.

On to G1A A62C, for which the self-cleavage stood at 2.59.

For U2A A24G, the self-cleavage is 0.54.

In the case of U2A A24C, the self-cleavage came out at 0.96.

As for U2A A78C, the self-cleavage was 0.66.

On to U2A A78G, for which the self-cleavage turned out to be 0.46.

Regarding G1A A90G, the self-cleavage came out at 0.26.

Consider G1A U132C, for which the self-cleavage is 0.94.

Regarding G1A A111G, the self-cleavage was found to be 0.21.

On to G1U A33U, for which the self-cleavage was 1.75.

On to G1U A33G, for which the self-cleavage is 0.79.

G1U U39A: the self-cleavage came out at 1.74.

As for G1A A33G, the self-cleavage is 0.78.

Regarding G1U A5G, the self-cleavage stood at 0.45.

U2A A114G: the self-cleavage was found to be 0.67.

On to U2A A5G, for which the self-cleavage turned out to be 1.24.

For the variant G1A A4G, the self-cleavage is 0.54.

Regarding G1A G137A, the self-cleavage came to 0.95.

G1A C40U: the self-cleavage worked out at 1.78.

Turning to G1A A92G, the self-cleavage worked out at 1.66.

For G1A A18G, the self-cleavage was 1.58.

As for G1A A18C, the self-cleavage was determined as 1.98.

With U2A C61U, the self-cleavage was found to be 0.71.

For G1A U122C, the self-cleavage came out at 0.48.

Regarding U2A A23C, the self-cleavage stood at 0.29.

With U2A A36U, the self-cleavage was 1.18.

G1U U103C: the self-cleavage was 1.59.

On to U2A A52G, for which the self-cleavage was 0.8.

Regarding G1A U49C, the self-cleavage stood at 1.35.

Take U2A A110G: the self-cleavage was 0.16.

As for U2A A96G, the self-cleavage stood at 1.05.

For U2A, the self-cleavage is 0.8.

As for G1A U108C, the self-cleavage was determined as 0.05.

G1A A82G: the self-cleavage stood at 1.18.

G1U C105A: the self-cleavage was determined as 0.03.

As to U2A A135U, the self-cleavage turned out to be 0.96.

Turning to G1A U9G, the self-cleavage stood at 1.23.

For the variant U2A A51U, the self-cleavage was determined as 0.86.

Regarding G1U U87C, the self-cleavage was 0.27.

As for U2A A129G, the self-cleavage stood at 0.66.

Consider U2A C45A, for which the self-cleavage was 1.82.

In the case of U2A A118G, the self-cleavage stood at 0.95.

On to G1A G138A, for which the self-cleavage was determined as 2.03.

For G1U A24G, the self-cleavage worked out at 1.6.

Take G1A A134G: the self-cleavage worked out at 1.75.

Variants of B2 are the subject of another data set. The data set is described as above.
For A129G U130A, the self-cleavage is 1.19.

For A129G U130C, the self-cleavage was determined as 1.69.

On to A129C U143C, for which the self-cleavage turned out to be 1.74.

With A136G A141G, the self-cleavage was 1.03.

Turning to C128U A141G, the self-cleavage came out at 1.37.

In the case of U130C C133A, the self-cleavage amounted to 1.61.

Turning to U134A C145U, the self-cleavage was 0.83.

G126C A140G: the self-cleavage was determined as 2.25.

In the case of C128U U143C, the self-cleavage stood at 1.26.

Consider U132A A136G, for which the self-cleavage came to 1.79.

For G126A U143A, the self-cleavage turned out to be 1.49.

As to G126A U143C, the self-cleavage was found to be 0.77.

With G135A A138U, the self-cleavage was 1.01.

Take A124G G127A: the self-cleavage worked out at 1.15.

As for A129U G139A, the self-cleavage turned out to be 1.53.

Regarding G126U U134C, the self-cleavage was found to be 1.49.

For G126U U134A, the self-cleavage came out at 0.84.

With C131U U134A, the self-cleavage turned out to be 1.65.

On to A142U U143A, for which the self-cleavage was found to be 1.13.

In the case of G135U A140G, the self-cleavage is 1.08.

Turning to G125A A140G, the self-cleavage is 1.32.

Regarding A140G G144U, the self-cleavage was found to be 1.05.

Consider G127C C145U, for which the self-cleavage stood at 1.01.

Consider U134A A142C, for which the self-cleavage was 1.23.

U132C A138G: the self-cleavage was 1.6.

Take U132C A138U: the self-cleavage was 1.48.

With U134C C146U, the self-cleavage was 1.65.

G125A A129C: the self-cleavage amounted to 1.36.

C145U C146A: the self-cleavage was found to be 1.59.

For the variant C128A U134A, the self-cleavage came to 0.3.

As to G127U A129G, the self-cleavage is 0.75.

As for A124U C133A, the self-cleavage was 1.59.

As to U134C, the self-cleavage was 1.18.

Consider U134G, for which the self-cleavage turned out to be 1.46.

Take U134A: the self-cleavage turned out to be 0.98.

For the variant A141G G144A, the self-cleavage was 1.28.

For the variant U132A U143C, the self-cleavage turned out to be 1.82.

Turning to U132A U143A, the self-cleavage came out at 2.

In the case of U130A A140G, the self-cleavage was determined as 1.27.

U130A A140U: the self-cleavage worked out at 1.24.

With A124U U134C, the self-cleavage is 1.51.

On to A136G A142G, for which the self-cleavage came out at 1.47.

For U132C G144U, the self-cleavage was 1.43.

For the variant G137C A138G, the self-cleavage stood at 1.26.

Consider A124U A140G, for which the self-cleavage was found to be 1.5.

On to G126A A136U, for which the self-cleavage was determined as 1.41.

On to G125C A138G, for which the self-cleavage was 1.9.

Take C128U A138G: the self-cleavage is 1.44.

With A138G A140G, the self-cleavage was determined as 1.52.

Turning to A138G A140U, the self-cleavage amounted to 1.29.

On to A138G A140C, for which the self-cleavage was 1.8.

As for A138U U143A, the self-cleavage was found to be 1.52.

A142C U143A: the self-cleavage amounted to 1.41.

As to A140G A141U, the self-cleavage worked out at 0.82.

In the case of U130C A141C, the self-cleavage was 2.91.

As to A129U G144A, the self-cleavage is 1.51.

For the variant U134G A142G, the self-cleavage is 1.16.

On to A124U A141G, for which the self-cleavage stood at 1.36.

For U134G G137U, the self-cleavage was 0.94.

Consider A140U A141G, for which the self-cleavage is 1.41.

Regarding G144U, the self-cleavage was determined as 1.58.

Take G144C: the self-cleavage is 1.34.

As to G144A, the self-cleavage came to 1.23.

U143C C146U: the self-cleavage was 1.51.

Turning to U132C G139U, the self-cleavage stood at 2.66.

As to A141G C145U, the self-cleavage is 1.

Take C133A U143C: the self-cleavage stood at 1.67.

As for G127U A141G, the self-cleavage is 1.45.

G127A A138G: the self-cleavage was 1.36.

Regarding A138C U143A, the self-cleavage is 1.94.

Regarding G126A A138U, the self-cleavage stood at 1.33.

Regarding U130A, the self-cleavage was 1.42.

On to U130C, for which the self-cleavage worked out at 1.52.

Take U130G: the self-cleavage amounted to 1.32.

With A124G C133A, the self-cleavage is 0.81.

For A129G A136G, the self-cleavage is 1.7.

With G126U A129U, the self-cleavage worked out at 0.81.

With G126U A129G, the self-cleavage was 1.61.

Regarding A136C A140G, the self-cleavage was determined as 1.53.

For A129G A140G, the self-cleavage was determined as 1.47.

On to U130C C145U, for which the self-cleavage worked out at 1.46.

As to A140G C146U, the self-cleavage is 1.63.

Take A124G U134C: the self-cleavage turned out to be 0.89.

Turning to A124G U134A, the self-cleavage came out at 0.39.

On to G125U A136U, for which the self-cleavage was 1.8.

As to G127A C146U, the self-cleavage was 1.43.

U132C A142C: the self-cleavage stood at 1.51.

Take U132C A142U: the self-cleavage was 1.2.

For G126U, the self-cleavage was determined as 1.18.

Take G126C: the self-cleavage is 1.19.

With G126A, the self-cleavage worked out at 1.31.

With G125A G144A, the self-cleavage stood at 1.33.

As for A142G U143C, the self-cleavage turned out to be 1.31.

Regarding A142G U143A, the self-cleavage stood at 1.28.

As for A138G G144A, the self-cleavage came to 0.14.

Turning to A138G G144C, the self-cleavage is 1.6.

G139U C145G: the self-cleavage is 2.02.

On to A140G U143C, for which the self-cleavage was determined as 0.26.

For the variant A129U A140G, the self-cleavage was found to be 1.53.

In the case of U130C G144A, the self-cleavage was 1.57.

Consider A124U U132C, for which the self-cleavage turned out to be 1.43.

For A129G G144A, the self-cleavage was 1.66.

As to A129G G144U, the self-cleavage was determined as 1.67.

Regarding A136G G137A, the self-cleavage stood at 2.12.

Regarding U132A A140U, the self-cleavage is 1.11.

With C133A A142G, the self-cleavage turned out to be 1.4.

For C131A A142G, the self-cleavage is 0.98.

Consider A124G A136U, for which the self-cleavage was 1.3.

Consider G126A C133A, for which the self-cleavage was determined as 1.7.

As to A129G A141G, the self-cleavage stood at 1.6.

As for A124G A142C, the self-cleavage was 0.58.

In the case of A124G A142U, the self-cleavage was determined as 0.94.

With A129G U132C, the self-cleavage was 1.58.

Take G137C: the self-cleavage is 1.3.
